Source: paper PMC9929924, “Phosphorylation of the receptor protein Pex5p modulates import of proteins into peroxisomes” (Biological Chemistry, 2022)
Substitutions are numbered along the chain they refer to. Numbers in names are those of the source. Ends that are not written are not given here. * marks the point of attachment. FITC = O=C1OC2(c3ccc(O)cc3Oc3cc(O)ccc32)c2ccc(NC(=S)*)cc21

B1: Mls1p (protein, UniProt P30952 1-554, looked up)
Malate synthase 1: MVKVSLDNVKLLVDVDKEPFFKPSSTTVGDILTKDALEFIVLLHRTFNNKRKQLLENRQVVQKKLDSGSYHLDFLPETANIRNDPTWQGPILAPGLINRSTEITGPPLRNMLINALNAPVNTYMTDFEDSASPTWNNMVYGQVNLYDAIRNQIDFDTPRKSYKLNGNVANLPTIIVRPRGWHMVEKHLYVDDEPISASIFDFGLYFYHNAKELIKLGKGPYFYLPKMEHHLEAKLWNDVFCVAQDYIGIPRGTIRATVLIETLPAAFQMEEIIYQLRQHSSGLNCGRWDYIFSTIKRLRNDPNHILPNRNQVTMTSPFMDAYVKRLINTCHRRGVHAMGGMAAQIPIKDDPAANEKAMTKVRNDKIRELTNGHDGSWVAHPALAPICNEVFINMGTPNQIYFIPENVVTAANLLETKIPNGEITTEGIVQNLDIGLQYMEAWLRGSGCVPINNLMEDAATAEVSRCQLYQWVKHGVTLKDTGEKVTPELTEKILKEQVERLSKASPLGDKNKFALAAKYFLPEIRGEKFSEFLTTLLYDEIVSTKATPTDLSKL
B2: Pcs60p nonapeptide, FITC-YKSSRNKSKL (peptide)
peptide: {FITC}-YKSSRNKSKL
notes: tyrosine added to the peptide amino-terminus for concentration measurements; the nine carboxy-terminal residues of Pcs60p, S. cerevisiae; An extra N-terminal tyrosine stands before the natural stretch; also called Pcs60p peptide; source: synthetic peptide (GenScript)
B3: Str3p: peroxisomal cystathionine beta-lyase (protein, UniProt P53101 1-465, looked up)
Cystathionine beta-lyase: MPIKRLDTVVVNTGSQNDQHSASVPPVYLSTTFKVDLNNEDAQNYDYSRSGNPTRSVLQHQIGKLYRVPQENVLAVSSGMTALDVILRGLVLLNGTDNHTPTIIAGDDLYGGTQRLLNFFKQQSHAVSVHVDTSDFEKFKTVFQSLDKVDCVLLESPTNPLCKVVDIPRILRFVKCISPDTTVVVDNTMMSGLNCNPLQLNPGCDVVYESATKYLNGHHDLMGGVIISKTPEIASKLYFVINSTGAGLSPMDSWLLVRGLKTLGVRLYQQQRNAMILAHWLENSCGFKPTRTNKATKTRFVGLRSNPDFKLHKSFNNGPGAVLSFETGSFEHSKRLVSSKKLSIWAVTVSFGCVNSLLSMPCKMSHASIDPELRKERDFPEDLVRLCCGIENIVDLKKDLLAAMVDADIIEVRENGKYLFNKLNKNLAVNTTIDDLHKPLSIYEEFYNQDLIRKDSELNIKSSKL
B4: Idp3p (protein, UniProt P53982 1-420, looked up)
Isocitrate dehydrogenase …: MSKIKVVHPIVEMDGDEQTRVIWKLIKEKLILPYLDVDLKYYDLSIQERDRTNDQVTKDSSYATLKYGVAVKCATITPDEARMKEFNLKEMWKSPNGTIRNILGGTVFREPIIIPKIPRLVPHWEKPIIIGRHAFGDQYRATDIKIKKAGKLRLQFSSDDGKENIDLKVYEFPKSGGIAMAMFNTNDSIKGFAKASFELALKRKLPLFFTTKNTILKNYDNQFKQIFDNLFDKEYKEKFQALKITYEHRLIDDMVAQMLKSKGGFIIAMKNYDGDVQSDIVAQGFGSLGLMTSILITPDGKTFESEAAHGTVTRHFRKHQRGEETSTNSIASIFAWTRAIIQRGKLDNTDDVIKFGNLLEKATLDTVQVGGKMTKDLALMLGKTNRSSYVTTEEFIDEVAKRLQNMMLSSNEDKKGMCKL
B5: Pnc1p: nicotinamidase, imported by piggy-backing on Gpd1p (protein, UniProt P53184 1-216, looked up)
Nicotinamidase: MKTLIVVDMQNDFISPLGSLTVPKGEELINPISDLMQDADRDWHRIVVTRDWHPSRHISFAKNHKDKEPYSTYTYHSPRPGDDSTQEGILWPVHCVKNTWGSQLVDQIMDQVVTKHIKIVDKGFLTDREYYSAFHDIWNFHKTDMNKYLEKHHTDEVYIVGVALEYCVKATAISAAELGYKTTVLLDYTRPISDDPEVINKVKEELKAHNINVVDK
B6: Pex5p^S507D (protein, UniProt P35056 1-612, looked up, variant S507D)
Peroxisomal targeting signal …: MDVGSCSVGNNPLAQLHKHTQQNKSLQFNQKNNGRLNESPLQGTNKPGISEAFISNVNAISQENMANMQRFINGEPLIDDKRRMEIGPSSGRLPPFSNVHSLQTSANPTQIKGVNDISHWSQEFQGSNSIQNRNADTGNSEKAWQRGSTTASSRFQYPNTMMNNYAYASMNSLSGSRLQSPAFMNQQQSGRSKEGVNEQEQQPWTDQFEKLEKEVSENLDINDEIEKEENVSEVEQNKPETVEKEEGVYGDQYQSDFQEVWDSIHKDAEEVLPSELVNDDLNLGEDYLKYLGGRVNGNIEYAFQSNNEYFNNPNAYKIGCLLMENGAKLSEAALAFEAAVKEKPDHVDAWLRLGLVQTQNEKELNGISALEECLKLDPKNLEAMKTLAISYINEGYDMSAFTMLDKWAETKYPEIWSRIKQQDDKFQKEKGFTHIDMNAHITKQFLQLANNLSTIDPEIQLCLGLLFYTKDDFDKTIDCFESALRVNPNDELMWNRLGASLANSNRDEEAIQAYHRALQLKPSFVRARYNLAVSSMNIGCFKEAAGYLLSVLSMHEVNTNNKKGDVGSLLNTYNDTVIETLKRVFIAMNRDDLLQEVKPGMDLKRFKGEFSF
B7: Pex5p^S523D (protein, UniProt P35056 1-612, looked up, variant S523D)
Peroxisomal targeting signal …: B6 Peroxisomal targeting signal … with D507S, S523D

Assays:
Pex5p^2D cells = assay: Fluorescence microscopy, peroxisomal import of GFP-tagged proteins in Pex5p^2D-expressing cells; assay type: cell-based, S. cerevisiae; set-up: key to import phenotype category: showed a reduced peroxisomal import and constitute category 1; category 2 characterized by no peroxisomal import; without a noticeable effect on import in Pex5p^2D cells (category 3); settings: GFP-tagged protein, Pex3p-mCherry marker, SD medium, 2% glucose; for import phenotype category: Pex5p^2D-expressing cells, assessed manually
Description: Query strains were constructed on the basis of an automated mating compatible strain. The query strains contained a peroxisomal marker (Pex3p-mCherry::HIS), a deletion of PEX5 (pex5Δ::NAT) and a plasmid expressing WT or mutant PEX5 (PEX5^WT, PEX5^2D or PEX5^2A). Using an automated mating method ([Cohen and Schuldiner 2011]; [Tong and Boone 2006]), the query strains were crossed with a NOP1pr-N′-GFP-peroxi library ([Dahan et al. 2017]). The NOP1pr-N′-GFP-peroxisomal library is a collection of ∼90 strains containing all the known peroxisomal proteins together with potential peroxisomal proteins and controls, genomically tagged with GFP at their N-terminus and expressed under the generic constitutive SpNOP1 promoter. To perform the manipulations in high-density format we used a RoToR bench top colony arrayer (Singer Instruments). In short: mating was performed on rich medium plates, and selection for diploid cells was performed on SD(MSG)-HIS-URA plates containing Geneticin (200 μg ml^−1) and Nourseothricin (200 μg ml^−1). Sporulation was induced by transferring cells to nitrogen starvation media plates for 7 days. Haploid cells containing the desired mutations were selected by transferring cells to SD-URA-HIS-LYS-ARG-LEU plates containing Geneticin and Nourseothricin (same concentrations as above), alongside the toxic amino acid derivatives Canavanine and Thialysine (Sigma-Aldrich) to select against remaining diploids and select for spores with an α mating type. A similar method was used to generate control, pex5Δ, and pex8Δ strains expressing GFP-Mdh3p (Supplementary Figure 4D), in which the query strain contained a peroxisomal marker (Pex3p-mCherry::NAT) and URA3::GFP-Mdh3p. This query strain was crossed with three strains from the mini peroxisomal deletion library ([Gabay-Maskit et al. 2020]): a control (no deletion), pex5Δ, and pex8Δ strain, all of which contain KAN (Geneticin) resistance.
The yeast collections were visualized using an automated microscopy setup as described previously ([Breker et al. 2013]). In short: cells were transferred from agar plates into 384-well polystyrene plates (Greiner) for growth in liquid media using the RoToR arrayer robot. Liquid cultures were grown in a LiCONiC incubator, overnight at 30 °C in SD-URA-HIS medium. A JANUS liquid handler (PerkinElmer) connected to the incubator was used to dilute the strains to an OD600 of ∼0.2 into plates containing SD medium (6.7 g l^−1 yeast nitrogen base and 2% glucose) supplemented with complete amino acids. Plates were incubated at 30 °C for 4 h. The cultures in the plates were then transferred by the liquid handler into glass-bottom 384-well microscope plates (Matrical Bioscience) coated with Concanavalin A (Sigma-Aldrich). After 20 min, cells were washed three times with SD-Riboflavin complete medium to remove non-adherent cells and to obtain a cell monolayer. The plates were then transferred to the ScanR automated inverted fluorescent microscope system (Olympus) using a robotic swap arm (Hamilton). Images of cells in the 384-well plates were recorded in the same liquid as the washing step at 24 °C using a 60× air lens (NA 0.9) and with an ORCA-ER charge-coupled device camera (Hamamatsu). Images were acquired in two channels: GFP (excitation filter 490/20 nm, emission filter 535/50 nm) and mCherry (excitation filter 572/35 nm, emission filter 632/60 nm). All images were taken at a single focal plane. The same protocol was used to visualize fluorescence signals in GFP-Mdh3p-expressing control, pex5Δ, and pex8Δ strains (Supplementary Figure 4D).

[1] = biological target: T1, Pex5p wildtype, recombinant His6-tagged (HisPex5p) (S. cerevisiae, UniProt P35056 1-612); assay: fluorescence polarisation; fluorescence anisotropy; 10 nM FITC-labelled peptide, serial dilutions of Pex5p variant 1.5 nM to 6.6 µM; 50 mM HEPES pH 7.5, 150 mM NaCl; one-site binding-saturation fit; settings: both partners purified
T1 construct: Pex5p, PTS1 receptor of Saccharomyces cerevisiae, UniProtKB P35056, full length; No cleavage of the His tag is described; the native MS mass of the monomer is printed as 71.459 kDa; also called Pex5p^WT; source: E. coli BL21 RIL (DE3), purified (Ni-NTA, MonoQ anion exchange, SEC)
T1 sequence (looked up): B6 Peroxisomal targeting signal … with D507S

[2] = system: GFP-SKL import in pex5Δ yeast cells; assay: Fluorescence microscopy, import of GFP-SKL in cells expressing Pex5p variants; assay type: cell-based, S. cerevisiae; settings: pex5Δ cells expressing plasmid-encoded Pex5p variant and GFP-SKL; grown in oleate
Procedure: Cells expressing distinct Pex5p variants (wildtype, Pex5p^2A or Pex5p^2D) and GFP-SKL were grown overnight in 50 ml YNO medium supplemented with 0.1% (w/v) glucose to an OD600 of 1–1.5. Aliquots of 5.4 ml were taken and formaldehyde was added to a final concentration of 3.7% (v/v). Samples were incubated for 10 min at RT with slight agitation. Cells were collected by centrifugation (5 min at 2000 g), resuspended in 1 ml of 0.1 M potassium phosphate buffer (pH 6.8) containing 3.7% (v/v) formaldehyde and incubated for 1 h at RT with slight agitation. Following centrifugation (30 s at 16,000 g), cells were resuspended in 1 ml of 0.1 M potassium phosphate buffer (pH 6.8) containing 10 mM ethanolamine and incubated for further 10 min at RT. Subsequently, cells were washed twice with phosphate-buffered saline (PBS) and resuspended in 10–20 µl of PBS containing 0.1% (v/v) Triton X-100. Fixed cells were analyzed within 48 h after preparation.
Fluorescence microscopy was performed using a Zeiss Axio Observer.Z1 microscope equipped with an alpha Plan-Aprochromat 100× objective and an AxioCam MR R3. GFP signal was visualized with a 38 HE filterset from Zeiss. Images were processed using Adobe Photoshop CS5 (version 12.0.4 ×64; Adobe Systems Incorporated). To document the structural integrity of cells, bright field images were acquired, adjusted in a way that only the cell boundaries were visible and subsequently added into the blue channel in Photoshop as reported before ([Motley and Hettema 2007]).

Row | Molecule | import phenotype category (Pex5p^2D cells) | further results
1 | Pex8p: essential component of the import machinery for peroxisomal matrix proteins | category 1 | –
2 | B1 | category 2 | –
3 | B2 | – | Kd [1]: 643 nM
4 | B3 | category 3 | –
5 | B4 | category 2 | –
6 | B5 | – | subcellular distribution / peroxisomal import (Pex5p^2D cells; Pex5p^2D cells): no differences in localization
7 | B6 | – | subcellular distribution of GFP-SKL [2]: wildtype-like distribution of GFP-SKL
8 | B7 | – | subcellular distribution of GFP-SKL [2]: wildtype-like distribution of GFP-SKL
